According to patent US20190309035A1, “PEPTIDE OR COLLECTION OF PEPTIDES DERIVED FROM AMYLOID PRECURSOR PROTEIN” (Ludwig-Maximilians-Universität München, priority 2015, published 2019):
“Also recorded” adds a separate entry of the source.

Tests used:
BACE1 = molecular target: T1, BACE1 (Cricetulus griseus, UniProt G3IAK4); test: BACE1 inhibitor treatment of CHO cells expressing human APPV717F, Western blot of supernatants; type: cell-based; conditions: 2 μM
T1 construct: endogenous in cells; host or cells: CHO cells overexpressing human APPV717F (CHO / 7PA2)
T1 sequence (G3IAK4 22-501): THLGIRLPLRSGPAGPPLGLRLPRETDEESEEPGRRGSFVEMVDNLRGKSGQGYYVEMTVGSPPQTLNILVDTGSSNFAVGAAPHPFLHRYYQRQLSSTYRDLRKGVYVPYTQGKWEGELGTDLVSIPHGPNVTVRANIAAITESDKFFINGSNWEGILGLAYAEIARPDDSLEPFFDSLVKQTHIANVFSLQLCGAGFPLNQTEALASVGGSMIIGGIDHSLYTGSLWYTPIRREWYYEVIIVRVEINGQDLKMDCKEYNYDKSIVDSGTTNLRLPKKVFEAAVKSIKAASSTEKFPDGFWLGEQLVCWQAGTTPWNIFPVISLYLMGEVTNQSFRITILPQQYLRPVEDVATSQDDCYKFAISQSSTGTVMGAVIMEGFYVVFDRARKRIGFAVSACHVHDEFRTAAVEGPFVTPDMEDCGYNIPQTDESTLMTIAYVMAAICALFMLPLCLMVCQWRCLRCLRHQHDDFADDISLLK
Procedure: a) Supernatants of CHO cells expressing human APPV717F without or with BACE1 inhibition (BI; 2 μM Merck IV) were compared to synthetic peptides of Aη-β and Aη-α. Increased Aη-α peptide levels were observed upon BACE1 inhibitor treatment with 2D8 and 2E9 antibodies. The fragment with the lowest molecular weight, co-migrating with the synthetic peptide Aη-β, disappeared upon BACE1 inhibition b) After overnight incubation of DIV 16 primary hippocampal neurons without or with the BACE1 inhibitor (BI; 2 μM Merck IV), supernatants were analyzed by Western blotting. […] Total levels of secreted APP (22C11) were unchanged while sAPP-α levels increased. […] Inhibitor treated mice and vehicle treated controls were sacrificed and analyzed after 5, 8 or 24 h. […]
CHO and 7PA2^44 cells were grown in DMEM/F12 (Thermo Scientific) supplemented with 10% fetal calf serum (FCS, Thermo Scientific) plus Penicillin/Streptomycin and NEAA (Non-essential amino acids, PAA) in a humid incubator with 5% CO2 at a temperature of 37° C. […] The protein concentration of lysates was determined using the Uptima BC Assay Protein Quantitation kit (Interchim).
Proteins were separated under denaturing conditions using discontinuous SDS-PAGE. […] CTFs, Aη and Aβ were detected after transfer on Nitrocellulose membranes (Protran BA85; GE Hlealthcare), while other proteins were blotted on PVDF (Immobilon-P, Merck Millipore). […]

hippocampal LTP = test: Long-term potentiation (LTP) recordings in acute hippocampal slices (fEPSP at the CA3-CA1 synapse); type: cell-based, mouse; conditions: for fEPSP baseline responses after incubation with SEC fractions: 1/15 dilution, 15 min bath application before LTP induction
Procedure: a) Aη-α and Aη-β peptides were expressed in CHO cells and collected in OPTIMEM medium. […] Higher molecular weight bands are most likely due to posttranslational modification by glycosylation. b-e) SEC fractions enriched for Aη were diluted (1:15) in ACSF for the treatment of hippocampal slices and LTP measurements. Aη-α, Aη-β and control SEC fractions (obtained from CHO cells transfected with the empty vector) were perfused over mouse hippocampal slices for 15 min after obtaining a stable baseline of a fEPSP at the CA3-CA1 synapse.
OPTIMEM was used to collect CHO cell supernatants. SEC was performed with concentrated CHO supernatants using a FPLC (ÄKTApurifier) equipped with a Superdex75 column (GE Healthcare). 1 ml samples were collected with a mobile phase flow rate set at 0.5 ml/min in standard ACSF. Acute hippocampal slices were prepared from Swiss mice (PND20-30) and kept in ACSF^42. Extracellular field excitatory post-synaptic potentials (fEPSPs) were obtained from CA1 pyramidal neurons. After 15 minutes of bath application of SEC fractions^43, LTP was induced by high frequency stimulation (2 pulses of 100 Hz for 1 second with a 20 second inter-pulse interval). LTP was recorded for 60 minutes and statistical analysis was performed on the last 15 minutes of recording compared to baseline fEPSP values.
Transverse hippocampal slices ([…]) were prepared from postnatal day 20-30 Swiss mice following standard procedures^56. Slices were cut in ice-cold oxygenated (95% O2/5% CO2) solution containing 206 mM sucrose, 2.8 mM KCl, 1.25 mM NaH2PO4, 2 mM MgSO4, 1 mM MgCl2, 1 mM CaCl2, 26 mM NaHCO3, 0.4 mM sodium ascorbate, 10 mM glucose (pH 7.4). For recovery (1 h), slices were incubated at 27° C. in oxygenated standard artificial cerebrospinal fluid (ACSF) containing: 124 mM NaCl, 2.8 mM KCl, 1.25 mM NaH2PO4, 2 mM MgSO4, 3.6 mM CaCl2, 26 mM NaHCO3, 0.4 mM sodium ascorbate, 10 mM glucose (pH 7.4)^57. Slices were inspected in a chamber on an upright microscope (Slicescope, Scientifica Ltd) with IR-DIC illumination and were perfused with the oxygenated ACSF at 27±1° C. Field excitatory post-synaptic potentials (fEPSPs) were recorded in the stratum radiatum of the CA1 region using a glass electrode (filled with 1 M NaCl/10 mM HEPES, pH 7.4) and the stimuli (30% of maximal fEPSP) were delivered to the Schaeffer Collateral pathway by a monopolar glass electrode (filled with ACSF). Electrodes were specifically placed just below the surface of the slice to maximize the exposure to circulating peptides. A minimum of 15 minutes stable baseline was first obtained in standard ACSF followed by another 15 minutes of bath application of ACSF containing SEC fractions (CHO, Aη-α or Aη-β; 1/15 dilution, interleaved recordings) using re-circulation with a peristaltic pump at 2.5-3 ml min^−1 while being continuously aerated with 95% oxygen. […] In the continuous presence of the ACSF/SEC solution, LTP was then induced using a high frequency stimulation (HSF) protocol with 2 pulses of 100 Hz for 1 sec with 20 see interval between pulses, and recorded for one hour. Control recordings (no application of SEC fractions) were obtained in an interleaved fashion where ACSF was re-circulated using an identical procedure. For LTP analysis, the first third of the fEPSP slope was calculated in baseline condition (15 minutes prior to induction of LTP and for 60 minutes post-induction). […]

[1] = SEC fractions from conditioned media of CHO cells, diluted 1:15 in ACSF, perfused 15 min before HFS, LTP 45-60 min post-HFS

Molecule | lowest molecular weight fragment co-migrating with synthetic Aη-β (BACE1) | Aη-α peptide levels in supernatant (BACE1; 2D8 and 2E9 antibodies) | effect on LTP (hippocampal LTP; 100 nM final in 25 ml re-circulating ACSF, vs interleaved ACSF recordings, 45-60 min post-LTP induction) | fEPSP baseline responses after incubation with SEC fractions (hippocampal LTP) | effect on LTP (hippocampal LTP; [1])
C[C@@H](NC(=O)c1cc(C(=O)N[C@@H](Cc2ccccc2)[C@H](O)CNC2CC2)cc(N(C)S(C)(=O)=O)c1)c1ccccc1 [Merck IV] | disappeared | Increased |  |  | 
AβS26C dimers: AβS26C dimers from JPT Peptide Technologies, Germany [reference compound] |  |  | reduced |  | 
Aη-α: Aη-α-peptide (residues 505-612 of P05067-4), 108 aa, expressed in CHO cells and enriched by SEC (protein, listed as Homo sapiens) MISEPRISYGNDALMPSLTETKTTVELLPVNGEFSLDDLQPWHSFGADSVPANTENEVEPVDARPAADRGLTTRPGSGLTNIKTEEISEVKMDAEFRHDSGYEVHHQK |  |  |  | No alterations | significantly inhibited
Aη-β: Aη-β-peptide (residues 505-596 of P05067-4), 92 aa, expressed in CHO cells and enriched by SEC (protein, listed as Homo sapiens) MISEPRISYGNDALMPSLTETKTTVELLPVNGEFSLDDLQPWHSFGADSVPANTENEVEPVDARPAADRGLTTRPGSGLTNIKTEEISEVKM |  |  |  | No alterations | had no effect; also recorded: did not significantly inhibit
